Results taken from patent US20220177587A1, “METHODS AND USES OF VARIANT CD80 FUSION PROTEINS AND RELATED CONSTRUCTS” (Alpine Immune Sciences, Inc., priority 2018, published 2022).
Where no end group is shown, it is not given here.

Key:
Pan T cells = experiment: Primary T cell stimulation assay with K562/OKT3 +/- PD-L1 (IL-2, IFN-gamma, proliferation); type: cell-based, human; set-up: IL-2 release, K562/OKT3 (No PD-L1), CD80-IgV Fc (effector), 1 nM / IL-2 release, K562/OKT3 (No PD-L1), CD80-IgV Fc (effector), 10 nM / IL-2 release, K562/OKT3 (No PD-L1), CD80-IgV Fc (effector), 100 nM / IL-2 release, K562/OKT3/PD-L1, CD80-IgV Fc (inert), 1 nM / IL-2 release, K562/OKT3/PD-L1, CD80-IgV Fc (inert), 10 nM / IL-2 release, K562/OKT3/PD-L1, CD80-IgV Fc (inert), 100 nM: unit not given here; conditions: Pan T cells + K562/OKT3 (no PD-L1), effector Fc format (controls as labelled), 72 hr
Procedure: IFN-gamma, IL-2 and proliferation were determined after 72 hr. incubation.

CD28 [1] = target: T1, CD28 (Homo sapiens, UniProt P10747); experiment: Jurkat/IL2 + CHO/OKT3 +/- PD-L1 reporter assay: PD-L1-dependent CD28 costimulation; type: cell-based; set-up: host or cells: Jurkat cells expressing an IL-2-luciferase reporter
Procedure: Jurkat cells were then plated at 50 μL/well for a total of 100,000 cells per well.
To each well, 25 μL of test protein was added to the Jurkat cells. […] The Jurkat cells with test or control proteins were incubated for 15 minutes at room temperature. CHO-derived artificial antigen presenting cells (aAPC) displaying transduced cell surface anti-CD3 single chain Fv (OKT3) (i.e., no PD-L1), or OKT3 and PD-L1 (i.e., +PD-L1), were brought to 0.8×10^6 cells/mL, and 25 μL of cells were added to each well, bringing the final volume of each well to 100 μL. […] Jurkat cells and CHO cells were incubated for 5 hours at 37 degrees Celsius in a humidified 5% CO2 incubation chamber. Plates were then removed from the incubator and acclimated to room temperature for 15 minutes. 100 μL of a cell lysis and luciferase substrate solution (BioGlo luciferase reagent, Promega) were added to each well and the plates were incubated on an orbital shaker for 10 minutes. Luminescence was measured with a 1 second per well integration time using a BioTek Cytation luminometer, and a relative luminescence value (RLU) was determined for each test sample.

huCTLA4 = huCTLA4 (Homo sapiens, UniProt P16410); experiment: Flow binding to CHO cells stably expressing CTLA4; set-up: huCTLA4 and huPD-L1, full-length mammalian surface expression constructs were generated; expressed in transfected cells; host or cells: CHO cells, lentiviral transduction, sorted to >98% purity; conditions: for CTLA4 MFI at 33.3 nM: CHO cells stably expressing CTLA4
Sequence of huCTLA4 (P16410 36-223): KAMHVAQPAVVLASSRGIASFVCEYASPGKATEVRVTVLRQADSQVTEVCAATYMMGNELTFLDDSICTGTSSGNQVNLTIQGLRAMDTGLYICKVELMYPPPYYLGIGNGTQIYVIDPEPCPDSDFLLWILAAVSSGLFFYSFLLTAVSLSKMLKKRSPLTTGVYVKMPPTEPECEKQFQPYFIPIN
Procedure: (§1) Binding of selected immunomodulatory fusion proteins to cognate binding partners was assessed. […] Cells were sorted in a Bio-Rad S3 Cell Sorter (Bio-Rad Corp., USA) to >98% purity. Jurkat/IL2 reporter cells, which endogenously express CD28, were used to detect binding to CD28.
(§2) For staining and analysis by flow cytometry, 100,000 cells of appropriate transfected cells were plated in 96-well round bottom plates. Cells were spun down and resuspended in staining buffer (phosphate buffered saline (PBS), 1% bovine serum albumin (BSA), and 0.1% sodium azide) for 20 minutes to block non-specific binding. […] Primary staining was performed on ice for 45 minutes, before washing cells in staining buffer twice. Phycoerythrin (PE)-conjugated anti-human Fc (Jackson ImmunoResearch, USA) was diluted 1:150, added to cells and incubated another 30 minutes on ice. Cells were then washed twice with 150 μL/well stain buffer, fixed in 2% formaldehyde/PBS, and analyzed on Intellicyt flow cytometer (Intellicyt Corp., USA). PE Mean Fluorescence Intensity (MFI) was calculated for each cell type with FlowJo Version 10 software (FlowJo LLC, USA).
(§3) Binding assays were carried out to assess the specificity and affinity of multivalent proteins to cell-expressed CTLA-4, CD28, and PD-L1 counter structures.
(§4) The EC50 for binding also was determined.

huPD-L1 = huPD-L1 (Homo sapiens, UniProt Q9NZQ7); experiment: Flow binding to CHO cells stably expressing PD-L1; set-up: huCTLA4 and huPD-L1, full-length mammalian surface expression constructs were generated; expressed in transfected cells; host or cells: CHO cells, lentiviral transduction, sorted to >98% purity; conditions: for PD-L1 MFI at 33.3 nM: CHO cells stably expressing PD-L1; for PD-L1 Fold change to WT CD80: MFI at 33.3 nM relative to CD80 WT IgV-Fc
Sequence of huPD-L1 (Q9NZQ7 19-290): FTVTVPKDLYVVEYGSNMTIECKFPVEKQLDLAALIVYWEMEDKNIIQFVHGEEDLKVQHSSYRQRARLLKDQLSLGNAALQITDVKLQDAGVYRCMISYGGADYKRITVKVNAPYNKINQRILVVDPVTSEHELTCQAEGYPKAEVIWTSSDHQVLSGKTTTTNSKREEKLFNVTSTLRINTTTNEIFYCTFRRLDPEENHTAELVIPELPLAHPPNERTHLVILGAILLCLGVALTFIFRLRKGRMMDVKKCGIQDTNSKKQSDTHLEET
Procedure: as §1, §2, §3, §4

CD28 [2] = target: T1, CD28; experiment: Flow binding to Jurkat/IL2 reporter cells (CD28); set-up: host or cells: Jurkat cells expressing an IL-2-luciferase reporter; conditions: for CD28 Fold change to WT CD80: MFI at 33.3 nM relative to CD80 WT IgV-Fc
Procedure: as §1, §2, §3, §4

[3] = Table E15, CHO/OKT3/PD-L1, 5.0 nM
[4] = Table E14, 33.3 nM, listed as CD80 WT IgV-Fc = 1.0
[5] = Table E22, Jurkat/IL2 + CHO/OKT3/PD-L1, 5.0 nM
[6] = Table E22, Jurkat/IL2 + CHO/OKT3/PD-L1, CD80 Conc 5.0 nM
[7] = Table E20, MFI at 33.3 nM relative to CD80 WT IgV-Fc
[8] = Table E20, ratio of MFI at 33.3 nM
[9] = Table E20, Jurkats (CD28), 33.3 nM
[10] = Table E24, Jurkat/IL2 + CHO/OKT3/PD-L1, 5.0 nM
[11] = Table E23, CD80 IgV-Fc (inert) at 33.3 nM
[12] = Table E23, MFI at 33.3 nM relative to CD80 WT IgV-Fc
[13] = Table E23, ratio of MFI at 33.3 nM
[14] = Table E23, CD80 IgV-Fc (inert) at 33.3 nM, Jurkat (CD28)

Row | Fold Increase over WT CD80-IgV-Fe (CD28 [1]; [5]) [fold] | Relative Luciferase Units (RLU), CD80 Conc 5.0 nM (CD28 [1]; [6]) [RLU] | CTLA4 MFI at 33.3 nM (huCTLA4; Table E20, 33.3 nM) | CTLA4 Fold change to WT CD80 (huCTLA4; [7]) [fold] | PD-L1 MFI at 33.3 nM (huPD-L1; Table E20, 33.3 nM) | PD-L1 Fold change to WT CD80 (huPD-L1; Table E20) [fold] | Ratio of PDL1:CD28 (huPD-L1; [8]) | CD28 MFI at 33.3 nM (CD28 [2]; [9]) | CD28 Fold change to WT CD80 (CD28 [2]; Table E20) [fold] | Substance | also measured
1 | – | – | – | – | – | – | – | – | – | WT CD80 IgV-Fc (effector) | IL-2 release, K562/OKT3 (No PD-L1), CD80-IgV Fc (effector), 1 nM (Pan T cells; 1 nM): 7167; IL-2 release, K562/OKT3 (No PD-L1), CD80-IgV Fc (effector), 10 nM (Pan T cells; 10 nM): 7123; IL-2 release, K562/OKT3 (No PD-L1), CD80-IgV Fc (effector), 100 nM (Pan T cells; 100 nM): 6203
2 | – | – | – | – | – | – | – | – | – | deltaE10-A98: variant CD80 IgV-Fc, IgV SEQ ID NO:545 (VIHVTKEVKEVTLSVKAD; not fully specified) | Fold Increase over WT CD80-IgV-Fe (CD28 [1]; [3]): 0.3; Relative Luciferase Units (RLU), CD80-Fe Cone 5.0 nM (CD28 [1]; [3]): 137 RLU; CTLA4 Fold change to WT CD80 (huCTLA4; [4]): 0.1; CTLA4 MFI at 33.3 nM (huCTLA4; Table E14, 33.3 nM): 125; PD-L1 Fold change to WT (huPD-L1; [4]): 0.5; PD-L1 MFI at 33.3 nM (huPD-L1; Table E14, 33.3 nM): 45; Ratio of PDL1:CD28 (huPD-L1; Table E14, MFI at 33.3 nM): 3; CD28 Fold change to WT (CD28 [2]; [4]): 0.4; CD28 MFI at 33.3 nM (CD28 [2]; Table E14, Jurkats (CD28), 33.3 nM): 15
3 | 2.45 | 956 | −100 | −0.1 | 14822 | 340.0 | 13.8 | 1075 | 24.5 | H18Y/A26E/E35D/A71G/D90G | –
4 | 2.86 | 1117 | 21749 | 16.0 | 30232 | 693.4 | 13.7 | 2211 | 50.4 | A26E/E35D/M47L/V68M/A71G/D90G | –
5 | – | – | – | – | – | – | – | – | – | H18V/A26S/E35D/M47L/V68M/A71G/D90G | Fold Increase over WT CD80-IgV-Fe (CD28 [1]; [10]): 5.2; Relative Luciferase Units (RLU), CD80 Conc 5.0 nM (CD28 [1]; [10]): 883 RLU; CTLA4 MFI at 33.3 nM (huCTLA4; [11]): 24919; CTLA4 Fold change to WT CD80 (huCTLA4; [12]): 18.0; PD-L1 MFI at 33.3 nM (huPD-L1; [11]): 73884; PD-L1 Fold change to WT CD80 (huPD-L1; Table E23): 447.8; Ratio of PDL1:CD28 (huPD-L1; [13]): 9.2; CD28 MFI at 33.3 nM (CD28 [2]; [14]): 8063; CD28 Fold change to WT CD80 (CD28 [2]; Table E23): 79.0
6 | 2.50 | 974 | 18305 | 13.5 | 27872 | 639.3 | 10.4 | 2683 | 61.1 | H18Y/A26E/V68M/A71G/D90G | –
7 | 2.19 | 853 | 121 | 0.1 | 31716 | 727.4 | 12.4 | 2556 | 58.2 | H18Y/A26E/M47L/V68M/A71G/D90G | –
8 | 2.46 | 961 | 19394 | 14.3 | 27476 | 630.2 | 69.7 | 394 | 9.0 | H18Y/A26E/E35D/V68M/A71G | –
9 | – | – | – | – | – | – | – | – | – | H18Y/E35D/M47V/V68M/A71G/D90G | Fold Increase over WT CD80-IgV-Fe (CD28 [1]; [10]): 4.8; Relative Luciferase Units (RLU), CD80 Conc 5.0 nM (CD28 [1]; [10]): 825 RLU; CTLA4 MFI at 33.3 nM (huCTLA4; [11]): 17165; CTLA4 Fold change to WT CD80 (huCTLA4; [12]): 12.4; PD-L1 MFI at 33.3 nM (huPD-L1; [11]): 52151; PD-L1 Fold change to WT CD80 (huPD-L1; Table E23): 316.1; Ratio of PDL1:CD28 (huPD-L1; [13]): 7.7; CD28 MFI at 33.3 nM (CD28 [2]; [14]): 6792; CD28 Fold change to WT CD80 (CD28 [2]; Table E23): 66.6
10 | 2.42 | 944 | 19353 | 14.2 | 16887 | 387.3 | 44.6 | 379 | 8.6 | H18Y/A26E/E35D/M47L/A71G | –
11 | 2.37 | 925 | 19736 | 14.5 | 12698 | 291.2 | 9.2 | 1379 | 31.4 | H18Y/A26E/E35D/M47L/D90G | –
12 | 2.41 | 940 | 23386 | 17.2 | 28683 | 657.9 | 16.3 | 1757 | 40.0 | H18Y/A26E/E35D/V68M/A71G/D90G | –
13 | 2.34 | 912 | 23286 | 17.1 | 26510 | 608.0 | 12.6 | 2102 | 47.9 | A26E/E35D/V68M/A71G/D90G | –
14 | 2.69 | 1049 | 19331 | 14.2 | 23206 | 532.2 | 9.0 | 2584 | 58.9 | H18Y/A26E/E35D/V68M/D90G | –
15 | – | – | – | – | – | – | – | – | – | H18A/A26P/E35D/M47L/V68M/A71G/D90G | Fold Increase over WT CD80-IgV-Fe (CD28 [1]; [10]): 5.0; Relative Luciferase Units (RLU), CD80 Conc 5.0 nM (CD28 [1]; [10]): 857 RLU; CTLA4 MFI at 33.3 nM (huCTLA4; [11]): 23763; CTLA4 Fold change to WT CD80 (huCTLA4; [12]): 17.2; PD-L1 MFI at 33.3 nM (huPD-L1; [11]): 33436; PD-L1 Fold change to WT CD80 (huPD-L1; Table E23): 202.6; Ratio of PDL1:CD28 (huPD-L1; [13]): 7.1; CD28 MFI at 33.3 nM (CD28 [2]; [14]): 4731; CD28 Fold change to WT CD80 (CD28 [2]; Table E23): 46.4
